T1: Zα domain of ADAR1 (hZαADAR1) (Homo sapiens) (UniProt P55265)
T1 sequence: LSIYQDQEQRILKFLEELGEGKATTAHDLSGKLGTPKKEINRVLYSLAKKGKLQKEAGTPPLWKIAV

T2: ZαADAR1 Y177A Y177A (Homo sapiens) (UniProt P55265)
T2 sequence: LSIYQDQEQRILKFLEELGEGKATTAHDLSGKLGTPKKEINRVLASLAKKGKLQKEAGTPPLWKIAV

T3: ZαADAR1 Y177F Y177F (Homo sapiens) (UniProt P55265)
T3 sequence: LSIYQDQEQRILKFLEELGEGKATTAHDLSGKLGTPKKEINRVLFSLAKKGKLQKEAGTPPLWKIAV

T4: Zβ domain of ADAR1 (hZβADAR1) (Homo sapiens, UniProt P55265 SEQ:1-62)
T4 sequence: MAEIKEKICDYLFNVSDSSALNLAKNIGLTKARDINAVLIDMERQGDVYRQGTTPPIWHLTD

T5: Zα domain of ADAR1 (hZαADAR1) (Homo sapiens, UniProt P55265 SEQ:1-67)
T5 sequence: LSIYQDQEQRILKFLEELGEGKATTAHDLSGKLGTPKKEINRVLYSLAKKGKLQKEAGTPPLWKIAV

T6: ZαADAR1 E171A (Homo sapiens, UniProt P55265 SEQ:1-67, E171A)
T6 sequence: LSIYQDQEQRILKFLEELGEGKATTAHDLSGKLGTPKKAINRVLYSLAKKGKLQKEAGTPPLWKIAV

T7: ZαADAR1 Q186A (Homo sapiens, UniProt P55265 SEQ:1-67, Q186A)
T7 sequence: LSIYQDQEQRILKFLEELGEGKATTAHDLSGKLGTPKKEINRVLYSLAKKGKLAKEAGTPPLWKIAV

B1: d(CG)6 (dsDNA)
DNA 1: CGCGCGCGCGCG
DNA 2: CGCGCGCGCGCG

Legend:
[1] = biological target: T1, Zα domain of ADAR1 (hZαADAR1) (Homo sapiens); test: SPR; details: partial bromination (stabilises Z form); Z-DNA stabilised by bromination
[2] = biological target: T2, ZαADAR1 Y177A Y177A (Homo sapiens); test: SPR; details: partial bromination (stabilises Z form); Z-DNA stabilised by bromination
[3] = biological target: T3, ZαADAR1 Y177F Y177F (Homo sapiens); test: SPR; details: partial bromination (stabilises Z form); Z-DNA stabilised by bromination
[4] = biological target: T4, Zβ domain of ADAR1 (hZβADAR1); test: CD at 255 nm; no change over time
[5] = biological target: T5, Zα domain of ADAR1 (hZαADAR1); test: CD at 255 nm; rapid, complete B-to-Z conversion; 90 uM bp DNA, 30 uM protein
ZαADAR1 E171A = biological target: T6, ZαADAR1 E171A; test: CD at 255 nm; rate comparable to wild type
ZαADAR1 Q186A = biological target: T7, ZαADAR1 Q186A; test: CD at 255 nm; rate comparable to wild type

Row | Molecule | Kd [1] [nM] | Kd [2] [nM] | Kd [3] [nM] | binding result [4] | binding result [5] | binding result (ZαADAR1 E171A) | binding result (ZαADAR1 Q186A)
1 | partially brominated poly(dG-dC) | 40 | 700 | 350 | – | – | – | –
2 | B1 | – | – | – | no binding | binds | binds | binds
